Consider 18 sequences from the supplement of paper PMC9170038.

The data set has as its system K4 kissing-loop RNA reporter. Nature of the data set: apparent KD of K4 kissing-loop reporter; higher = weaker reporter binding. Particulars: Eterna round: R107. The protocol:
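RNA-MaP round R107: designed RNA switches with theophylline, tryptophan, arginine or FMN aptamers are transcribed on-chip within common flanks. They are titrated with a labelled K4 kissing-loop RNA reporter in RNA-MaP buffer (100 mM Tris pH 7.5, 80 mM KCl, 4 mM MgCl2), without ligand or with the indicated ligand. Median apparent KD per design.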

Where [1] appears, read: input ligand: theophylline 20 uM.
Where [2] appears, read: input ligand: tryptophan 2.4 mM.
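Note: bound reporter read as fluorescence of individual clusters on recovered sequencing chips by microscopy, with normalized cluster intensities fitted with a binding model.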

On to “GGUGUUGUUUGUGCUGUUUUCUUUGUUUCUCGAGGACCGGUACGGCCGCCACUCGAGUGAUGUUUGGGUAGCGAUGUUUGUUAGU [Bdazzled - #2 - Exc. Tryptophan A]”, for which the “apparent KD of K4 kissing-loop reporter” value reads like this: (input ligand: FMN 200 uM) 0.463 µM; (input ligand: arginine 13.2 mM) 0.28 µM; (input ligand: none) 0.355 µM; under setting [1], 0.383 µM; under setting [2], 0.411 µM.

Consider “GGUUCUGGUUUGGAGUGAUGUUCUAAGUGGCAGGAUAUGGAGAGAUCCAGAAGGGCCGUUUGUAUCUUUUUUGUGUGGUUUUUUU [Last Minute #2]”, for which the “apparent KD of K4 kissing-loop reporter” value came out at 0.132 µM (input ligand: FMN 200 uM); 0.195 µM (input ligand: arginine 13.2 mM); 0.231 µM (input ligand: none); 0.206 µM under setting [1]; 0.161 µM under setting [2].

For “GGUUUAUAGGAGGAUACCAGUACGAAUAAAGUACAUUAAUAGUAGAGUGAUGUUCUAAAGUACCCUUGGCAGCUUAGAUUAAGUU [ExTheophylB.H]”, the “apparent KD of K4 kissing-loop reporter” value was found to be 0.102 µM (input ligand: FMN 200 uM); 0.18 µM (input ligand: arginine 13.2 mM); 0.116 µM (input ligand: none); 0.166 µM under setting [1]; 0.0779 µM under setting [2].

On to “GUACCAGUGAUGUUGGUAGGCGAGCGGGAUACCAGCCAAGACUCAGGCCCUUGGCAGCCCACAUAUCCCACGUAGGUAGUAGCUC [Same State - Theophylline A (Freestyle 17)]”, for which the “apparent KD of K4 kissing-loop reporter” value runs as follows: (input ligand: FMN 200 uM) 0.096 µM; (input ligand: arginine 13.2 mM) 0.103 µM; (input ligand: none) 0.105 µM; under setting [1], 0.11 µM; under setting [2], 0.0929 µM.

With “GUACGCUCCCGAGUGAUGUUCGGUAAUCGCUAGGAUAUCGCUUUUGCGAGAAGGAGCGGAAUGAGGAAACUCGUUCUGAGUGUAC [FMN A 26]”, the “apparent KD of K4 kissing-loop reporter” value by setting is: (input ligand: FMN 200 uM) 0.3 µM; (input ligand: arginine 13.2 mM) 0.254 µM; (input ligand: none) 0.35 µM; under setting [1], 0.386 µM; under setting [2], 0.338 µM.

Turning to “GUACGCUCUCGAGUGAUGUUCGAUAAUCGCGAGGAUAUCGCUUUUGCGAGAAGGCGCGGAAUGAGGAAACUCGUUCUGAGUGUAC [FMN A 24]”, the “apparent KD of K4 kissing-loop reporter” value runs as follows: (input ligand: FMN 200 uM) 0.603 µM; (input ligand: arginine 13.2 mM) 0.39 µM; (input ligand: none) 1.06 µM; under setting [1], 0.673 µM; under setting [2], 0.841 µM.

In the case of “GUACGCUCUCGAGUGAUGUUCGGUAAUCGCUAGGAUAUCGCUUUUGCGAGAAGGAGCGGAAUGAGGAAACUCGUUCUGAGUGUAC [FMN A 22]”, the “apparent KD of K4 kissing-loop reporter” value runs as follows: (input ligand: FMN 200 uM) 0.452 µM; (input ligand: arginine 13.2 mM) 0.295 µM; (input ligand: none) 0.447 µM; under setting [1], 0.325 µM; under setting [2], 0.476 µM.

In the case of “GUAGACAGACUGCGGGCCUAGUCUACAGACUAGGAUAUCAGGAAACUGAGAAGGAGUCUAGUUGCAGUGAUGUUGCAAGAAUAAU [KL-SSFMN-A26]”, the “apparent KD of K4 kissing-loop reporter” value stood at 0.0991 µM (input ligand: FMN 200 uM); 0.115 µM (input ligand: arginine 13.2 mM); 0.0936 µM (input ligand: none); 0.114 µM under setting [1]; 0.0784 µM under setting [2].

As to “GUAUCGCUAGGAGGAUAUUCCAUUUUACAUAGAAAUGGCUAUGCGGAGUGAUGUUCCGAUUUACGGGAAGAAGGCCUAGUGAUAC [FMN B 21]”, the “apparent KD of K4 kissing-loop reporter” value runs as follows: (input ligand: FMN 200 uM) 0.137 µM; (input ligand: arginine 13.2 mM) 0.119 µM; (input ligand: none) 0.131 µM; under setting [1], 0.115 µM; under setting [2], 0.121 µM.

As for “GUAUCGCUAGGAGGAUAUUUCAAAUAACCAAUAAAUGGUUAUACGGAGUGAUGUUCCGAUUUACGGAAAGAAGGCCUAGUGAUAC [FMN B 5]”, the “apparent KD of K4 kissing-loop reporter” value stood at 0.137 µM (input ligand: FMN 200 uM); 0.276 µM (input ligand: arginine 13.2 mM); 0.302 µM (input ligand: none); 0.319 µM under setting [1]; 0.29 µM under setting [2].

On to “GUGCGGUGGAGGUUACCGCUAUUCUGAGAAGGAGCGCAGAUGACUGCAGGUAGGUCGCUUAGAGCUUGCAGUGAUGUUGCAAGUU [Berienza]”, for which the “apparent KD of K4 kissing-loop reporter” value runs as follows: (input ligand: FMN 200 uM) 0.22 µM; (input ligand: arginine 13.2 mM) 0.174 µM; (input ligand: none) 0.199 µM; under setting [1], 0.166 µM; under setting [2], 0.2 µM.

On to “GUGGAAUUAUGAAAGUGGUUUUAUUAGGAAGGAGCGGCCGAAAGGCCAGGUAGGUCGCCUAUUGACAGUGAUGUUGUUAUAUGGU [#14]”, for which the “apparent KD of K4 kissing-loop reporter” value (input ligand: FMN 200 uM) was determined as 0.158 µM; the “apparent KD of K4 kissing-loop reporter” value (input ligand: arginine 13.2 mM) is 0.199 µM; the “apparent KD of K4 kissing-loop reporter” value (input ligand: none) was found to be 0.151 µM; the “apparent KD of K4 kissing-loop reporter” value under setting [1] turned out to be 0.204 µM; the “apparent KD of K4 kissing-loop reporter” value under setting [2] is 0.0943 µM.

In the case of “GUGGCGACGCAAGGAUAUGGGUGCUAGUGAUGUUAGCCUUUGCUCCAUGUCACGUGGUCUGCACACCCAGAAGGUGCGGGAAGAU [theeternabot_exclusion_KL_FMN_B_9]”, the “apparent KD of K4 kissing-loop reporter” value worked out at 0.482 µM (input ligand: FMN 200 uM); 0.293 µM (input ligand: arginine 13.2 mM); 0.327 µM (input ligand: none); 0.307 µM under setting [1]; 0.354 µM under setting [2].

Regarding “GUUACGCAUGGAAGGAGCGCACUCCGAUUGGUCGACACAGUGAUGUUGUGGUUCGUUCGAAUGCAGGUAGGUCGCCAUGUGUAAC [Ex Arginine B K4 18]”, the “apparent KD of K4 kissing-loop reporter” value (input ligand: FMN 200 uM) was found to be 0.165 µM; the “apparent KD of K4 kissing-loop reporter” value (input ligand: arginine 13.2 mM) came to 0.143 µM; the “apparent KD of K4 kissing-loop reporter” value (input ligand: none) came out at 0.175 µM; the “apparent KD of K4 kissing-loop reporter” value under setting [1] was found to be 0.145 µM; the “apparent KD of K4 kissing-loop reporter” value under setting [2] turned out to be 0.149 µM.

Turning to “GUUACGCAUGGAAGGAGCGCAGGCUCAACAAAUAGCUCAGUGAUGUUGAGCAUAUUAAAUCUGCAGGUAGGUCGCCAUGUGUAAC [Ex Arginine B K4 24]”, the “apparent KD of K4 kissing-loop reporter” value turned out to be 0.498 µM (input ligand: FMN 200 uM); 0.5 µM (input ligand: arginine 13.2 mM); 0.504 µM (input ligand: none); 0.559 µM under setting [1]; 0.581 µM under setting [2].

With “GUUAUGGACCUGGAUACCAGCUGGUACUAAGUGGGAGAAUGAAAGUGAUGUUUUCGUGCUAGCCCUUGGCAGCCAGCAACCCGCA [XTheo-B7]”, the “apparent KD of K4 kissing-loop reporter” value reads like this: (input ligand: FMN 200 uM) 0.104 µM; (input ligand: arginine 13.2 mM) 0.0836 µM; (input ligand: none) 0.0894 µM; under setting [1], 0.0794 µM; under setting [2], 0.0801 µM.

As for “GUUCUCGAAACUCAGUGAUGUUGAGUUGCAGAGGAUAUCCGCACAUGGAGAAGGCUGCAGUAAUUUAAAGACUCAGCGGCGCUCC [Riare]”, the “apparent KD of K4 kissing-loop reporter” value reads like this: (input ligand: FMN 200 uM) 0.112 µM; (input ligand: arginine 13.2 mM) 0.117 µM; (input ligand: none) 0.115 µM; under setting [1], 0.12 µM; under setting [2], 0.115 µM.

On to “UAACUUGCAGUGAUGUUGCAAGAACUGGAUACCAGCAUGGAAACAUGCCCUUGGCAGCCAGAAGCUGGCUGAACAUCACGUCAGU [Design5]”, for which the “apparent KD of K4 kissing-loop reporter” value was 0.227 µM (input ligand: FMN 200 uM); 0.14 µM (input ligand: arginine 13.2 mM); 0.308 µM (input ligand: none); 0.159 µM under setting [1]; 0.217 µM under setting [2].
